# Data published in the RNAGym collection of RNA variant scans (doi:10.1073/pnas.2313332121).
# This sample holds only a part of the variants without activity.
# B1: TPR 5TU (parent)
# chain: GGAUCUUCUCGAUCUAACAAAAAAGACAAAUCUGCCACAAAGCUUGAGAGCAUCUUCGGAUGCAGAGGCGGCAGCCUUCGGUGGCGCGAUAGCGCCAACGUUCUCAACUAUGACACGCAAAACGCGUGCUCCGUUGAAUGGAGUUUAUCAUG
# Variants of: B1
# Assay: polymerase ribozyme fitness, log enrichment relative to wild type (log ratio); higher = more active; in vitro selection for triplet polymerase activity
# Outline: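 Mutant libraries of both subunits of a heterodimeric triplet polymerase ribozyme were PCR-built, transcribed, and selected once in triplicate, with frozen incubation at −7 °C and capture of gel-excised extended constructs on streptavidin beads before RT-PCR. Illumina sequencing of input and output libraries was filtered to genotypes with ≥10 input reads and ≥1 read per output. Fitness is the logarithm of genotype enrichment over wild-type enrichment, using inverse-variance-weighted replicate averages. The logarithm is base 2.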
row,Variant,polymerase ribozyme fitness (log ratio)
1,C14A A52G C85U A113C,-4.15
2,C14A G58A A89U G94U,-3.75
3,C14A G83A C93G A107G,≤ -4.2
4,C14G A17G C27U C96G A122G G141C,≤ -4.2
5,C14A C75U,-1.84
6,C14G A26G G58U C72U A122G,≤ -4.2
7,U13G U56A C76G A91U C93U,≤ -4.2
8,U13G G58C G62U U82A G86U U127C U146G,≤ -4.2
9,C14G A26U A30U C75A C93U G141A U148G U151G,≤ -4.2
10,C14A U15C A19C A20C U45C G86U,-4.11
11,C14A C76A A89C U90G C95U A107U,≤ -4.2
12,U13G G94C C114G G143A,≤ -4.2
13,C14G A20U C76A,-3.92
14,C14G A24C,-3.63
15,C14G A24U,-3.18
16,U13G U77G U145G U151G,≤ -4.2
17,C14A C125A,-1.75
18,C14A G62U G94A,-2.9
19,C14A G50A C85U G126C,-4.17
20,C14G A19C C75U U82C C93U A97U C105G,≤ -4.2
21,U13G G68C G84A,≤ -4.2
22,C14A A28U G68U G92C C125U A137C A150C,≤ -4.2
23,C14G A28G C51U A52U G88A U109G,≤ -4.2
24,C14A A23C U56A C75G U77A C93U C95G U102C,≤ -4.2

row,Variant,polymerase ribozyme fitness (log ratio)
1,C14G A23G G88A,≤ -4.2
2,C14A C35U G58A G86A C96U,-3.96
3,C14A U53A C96A A98C A120U G141A,-3.99
4,C14A A19U U56G G86U C116G C125U G133A G143C,≤ -4.2
5,C14A A17U A24C C57U G58C C87A,≤ -4.2
6,C14A G62A C85A G141A,-3.57
7,U13G U56A G71A U135C,≤ -4.2
8,C14A A26U G46A C85U C105A A113G C114A G128A A147G,≤ -4.2
9,C14A C38U,-1.31
10,C14A A16G,-0.651
11,C14A A26U A29G C57G C93A G141C,≤ -4.2
12,C14G A26U G58C A89U G117U A120C C125A,≤ -4.2
13,C14A A19G A26U C79A G83U A119C,≤ -4.2
14,C14A U102G,≤ -4.2
15,C14G A20G C75A C96G G141C,≤ -4.2
16,C14A U31A U55A G92A C125U A142U,≤ -4.2
17,C14A C18U A22U A26U U82C C95U U145G U148C C149U,≤ -4.2
18,C14G A26U C27G C35A A52C A91G A107G G126U U130A,≤ -4.2
19,C14A A37U C75G G94A A113G C114G C149A,≤ -4.2
20,U13G G136A U144C,-2.04
21,C14A G59C U78G C96U,≤ -4.2
22,C14A A40C G92C G143A,≤ -4.2
23,C14G A30U A41C C43U G50C U55G C75G C118U A119C,≤ -4.2
24,U13G G136A A137G C149U,-3.07

row,Variant,polymerase ribozyme fitness (log ratio)
1,C14G A20G A24U C72G U82G A97G U101C C103G G136A,≤ -4.2
2,C14G A21U A52G C85A C118G G128A G141C,≤ -4.2
3,C14A G83A,-0.809
4,C14A A23G A26U C43U C54U C57A C96G G143A,≤ -4.2
5,U13G U53A A66C G83U C149A,≤ -4.2
6,U13G G84A G143U,-3.44
7,C14A G62U,-1.57
8,C14A G62C C76A C87A G117U A137C U146G,≤ -4.2
9,C14G A22C A39C A52G C75G U82G G140U,≤ -4.2
10,C14A A49G C54U G71A U77C G86U G143A,≤ -4.2
11,U13G G83U C105U G117C U148A,≤ -4.2
12,C14A C27G A91C A115G,≤ -4.2
13,C14G A22C A52U C96A A97U G117U,≤ -4.2
14,C14G A24C A60G G62A G65C C87U U145G,≤ -4.2
15,U13G G92C,-2.36
16,C14A C99G,-1.66
17,C14A A16C G46A G67C C85A C95A,≤ -4.2
18,C14A A37U A52G G83A G84A A115U,≤ -4.2
19,U13G U61A A89U C96U,-3.58
20,C14A G80A C85U C103G G117U G124U A142G,≤ -4.2
21,C14A A60G C85G C118G C132U,-3.89
22,C14A A150G,-2.78
23,C14G A30G G46C C95U,-4.17
24,C14G A28U U55G A89U C96A G126A G128C G140C,≤ -4.2

row,Variant,polymerase ribozyme fitness (log ratio)
1,C14A G86C,-3.85
2,C14A A49C C85A U90G G94U A107G G141U,≤ -4.2
3,C14G A19U G59C G81U C95U G141A,-3.74
4,C14G A21U A30U U31C,≤ -4.2
5,C14A U101G,-1.35
6,C14G A19G G46A C72G G84U,≤ -4.2
7,C14A A41U C76G C87A G92C U144G,≤ -4.2
8,C14G A21U A60U C75A U77G A89U C95A,≤ -4.2
9,C14G A20U G50A U56A G65U C93A C131A,≤ -4.2
10,C14A A21U G59U G133C,-3.06
11,C14A A24U U90A,≤ -4.2
12,C14A C38A G42C U56G G67C G84A C108U U127C,≤ -4.2
13,U13G U56A G86U C131U,-4.16
14,C14A U82G C96G,-2.31
15,C14G A26U G59C G86C G100A G136U U144A,≤ -4.2
16,U13G U90G,-4.04
17,C14A C54U G83U C95U U111G U134G,≤ -4.2
18,C14G A30U U33G A49C A52U C72G A73G C87U U144G,≤ -4.2
19,C14A A20C C27G,≤ -4.2
20,C14A C85A,-2.69
21,C14A C27G C32G U77C G84A,≤ -4.2
22,C14A A16U G83A C93G C95U A98U C108G,≤ -4.2
23,C14A C38G G81U G94U,-3.15
24,C14G A21U G59C G94A U101G A113C,≤ -4.2

row,Variant,polymerase ribozyme fitness (log ratio)
1,C14A A17C A41C C96U A115U G141A,≤ -4.2
2,C14G A30U U61A G92A C99A,≤ -4.2
3,C14A A19G G68A C99A C123U,≤ -4.2
4,C14A G25A U53G G84C C87U G117C G124A,≤ -4.2
5,C14A A28U G46C U61A C95U U139C A150C,≤ -4.2
6,C14A C93U,-2.33
7,C14A A39C G70A U130G,≤ -4.2
8,C14A A52G U55G C99U,-3.48
9,U13G U31C C96A,-0.864
10,C14A A41C C76U G84U,-2.89
11,C14A A16C A28G A60G C79G A91G U109A,≤ -4.2
12,C14G A19U C87G U145A,≤ -4.2
13,C14A A29U C96A U101G G133C U144C,≤ -4.2
14,C14A A17C C36A U44A U45A C54A C85G G88U C103G A110C,≤ -4.2
15,C14A G80C G86U C118U,≤ -4.2
16,C14A C63U G71A C85G G100U,≤ -4.2
17,C14G A23U A28C A40G G42C A89U C116G G124C U134G,≤ -4.2
18,C14A U135A A142C,-3.9
19,C14A C54U,-2.07
20,C14A C54A,-3.55
21,C14A U55A,-1.9
22,U13G G65C G83A,≤ -4.2
23,C14A C35U C57U G59C U134A,-4.18
24,U13G U55A G94A G100A G140U,-4.11

row,Variant,polymerase ribozyme fitness (log ratio)
1,C14A A20G C38A A39G C54U A91C A106U G124C,≤ -4.2
2,C14A A17G G74U C85U C99G U101A U148A,≤ -4.2
3,C14A A29C C96G A150U,≤ -4.2
4,C14A A64U C93U G141A,≤ -4.2
5,C14A A20C C96U,-1.32
6,C14A A17U A40U C57G G84U C96A A121C,≤ -4.2
7,C14A C36U U45C C87U C105A G133U,≤ -4.2
8,C14G A21C C54A G67A G94U C123U,≤ -4.2
9,C14A A16U A49G G50A C57A A60G C95G U101C A110G,≤ -4.2
10,C14A A19G G48U A66C A73G G84U U135A U151G,≤ -4.2
11,C14A A19C C93U C125A,-3.52
12,C14G A23G A73G G84U A122U,≤ -4.2
13,C14G A16G A22C A60U C87U C93U A121C,≤ -4.2
14,C14G A19U G34U C87G G100A A142C,≤ -4.2
15,C14A C95U,-1.38
16,C14A A66U G68A C72G G92U,≤ -4.2
17,C14A C38A C93G,≤ -4.2
18,C14G A17G C32U G81A G83C,≤ -4.2
19,C14A U44G,-4.1
20,C14G A22G C54U G70U C95U C96A C114U A137C,≤ -4.2
21,C14A C35G G59C A64C A73G G141U,≤ -4.2
22,C14G A17U A37U A52G C57U A91U U127A U134A A150U,≤ -4.2
23,C14G A28G U31A C32U G34A G42C U55G G94U,≤ -4.2
24,C14G A29C U53A C95U C114U G140A,-3.68

row,Variant,polymerase ribozyme fitness (log ratio)
1,C14G A22U A26G A28C U134A,≤ -4.2
2,C14G A24U A28U C43U A73G U82C C103G G136A U146C,≤ -4.2
3,C14A A17G A22U A24C A41C G70A U78A U90C C129U,≤ -4.2
4,C14G A29G C54U C132G,≤ -4.2
5,C14A A39U A49C C57A C79G G86U,≤ -4.2
6,C14A G58A G68A U78A G94A,≤ -4.2
7,C14A U44A G81A C85A U102G,≤ -4.2
8,C14A G84A,-1.24
9,U13G G81U G86A C105U,-3.74
10,C14A U90G A137C,≤ -4.2
11,C14A A39U A73G C95G,≤ -4.2
12,C14G A19C,-1.66
13,C14A A16U A19U A52G G68A C85G U151G,≤ -4.2
14,U13G U56A,-0.285
15,C14G A23C C32U C96U,-4.1
16,C14A A23C A66U C93A G128U U151A,≤ -4.2
17,C14A A16G A20G U56A U82G A106G,-3.04
18,C14A A16C A19U U82A G83U C149U,-3.89
19,U13G G141C,-1.88
20,U13G G80C G94U U134A,≤ -4.2
21,C14A G59A G84A A106G C125G U148C C149U,≤ -4.2
22,U13G G83C C99G C118G C123U A137G,≤ -4.2
23,C14G A28G U53A C63U A89C A106U G126A G141A,≤ -4.2
